In patent WO2021228904A1 (dated 2021):
Substitutions are numbered along the chain they refer to.

B1: SEQ ID NOs: 397/401 (HCVR/LCVR) (antibody, V domains shown)
VH: EVQLVQSGAEVKKPGESLRISCKGSGYSFTSYWISWVRQMPGKGLEWMGRIDPSDSYTNYSPSFQGHVTISADKSISTAYLQWSSLKASDTAMYYCARPNPAGGYDSSGWVDAFDIWGQGTRVTVSS
VL: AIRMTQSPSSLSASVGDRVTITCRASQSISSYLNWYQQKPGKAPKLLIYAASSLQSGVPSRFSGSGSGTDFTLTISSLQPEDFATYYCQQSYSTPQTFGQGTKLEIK
B2: SEQ ID NOs: 153/157 (HCVR/LCVR) (antibody, V domains shown)
VH: QVQLVESGGGLVKPGGSLRLSCAASGFTFSSYSMNWVRQAPGKGLEWVSSISSSSSYIYYADSVKGRFTISRDDAKNSLFLQMNSLRAEDTAVYYCAGDQNLYCSGDSCYYHYYGMDVWGQGTVVTVSS
VL: NFMLTQPPSVSVAPGKTARITCGGNNIGSKSVHWYQQKPGQAPVLVIYYDSDRPSGIPERFSGSNSGNTATLTISRVEAGDEADYYCQVWDSSSDHWVFGGGTKLTVL
B3: SEQ ID NOs: 445/449 (HCVR/LCVR) (antibody, V domains shown)
VH: EVQLVESGPGLVKPSQTLSLTCTVSGGSISSGDYYWSWIRQPPGKGLEWIGYIYYSGSTYYNPSLKSRVTISVDTSKNQFSLKLSSVTAADTAVYYCARGVEDPVVPAAIPWCWFDPWGQGTRVTVSS
VL: QSVLTQPPSVSVAPGQTARITCGGNNIGSKSVHWYQQKPGQAPVLVVYDDSDRPSGIPERFSGSNSGNTATLTISRVEAGDEADYYCQVWASSSVVFGGGTKLTVL
B4: 002_P2H1 (antibody, V domains shown)
VH: EVQLVESGGGLIQPGGSLRLSCAASGFTVSSNYMSWVRQAPGKGLEWVSVIYSGGSTYYADSVKGRFTISRDNSKNTLYLQMNSLRAEDTAVYYCASPLLLTPPDYYYYMDVWGKGTMVTVSS
VL: DVVMTQSPSSLSVSVGDRVTITCRASQGIRNDLGWYQQKPGKAPKRLIYAASSLQSGVPSRFSGSGSGTEFTLTISSLQPEDFATYYCLQHNSYLWTFGQGTKLEIK
B5: SEQ ID NOs: 337/341 (HCVR/LCVR) (antibody, V domains shown)
VH: QVQLVQSGAEVKKPGATVKISCKVSGYTFTDYYMHWVQQAPGKGLEWMGLVDPEDGETIYAEKFQGRVTITADTSTDTAYMELSSLRSEDTAVYYCASSDSSGFVGSRGFDYWGQGTRVTVSS
VL: B4 VL with V2I, V3Q, M4L, V13A, L95P, W96P, T97L, L104V
B6: COVA1-22 (antibody, V domains shown)
VH: EVQLVESGAEVKKPGASVKVSCKASGYTFTSYGISWVRQAPGQGLEWMGWISAYNGYTNSAQKLQGRVTMTTDTSTSTAYMELRSLRSDDTAVYYCARDLVDTAMVQTLDDYGMDVWGQGTMVTVSS
VL: not shown
B7: 002_P1H10 (antibody, V domains shown)
VH: QVQLVETGGGLIQPGGSLRLSCAASGFTVSSNYMSWVRQAPGKGLEWVSVIYSGGSTYYADSVKGRFTISRDNSKNTLYLQMNSLRAEDTAVYYCARDLDTMGGMDVWGQGTRVTVSS
VL: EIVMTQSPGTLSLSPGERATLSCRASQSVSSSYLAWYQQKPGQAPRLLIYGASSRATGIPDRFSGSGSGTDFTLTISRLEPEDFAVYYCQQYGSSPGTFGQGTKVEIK
B8: COVA2-29 (antibody, V domains shown)
VH: EVQLVESGGGVVQPGRSLRLSCAASGFTFSSYTMHWVRQAPGKGLEWVAVISYDGSNKYYADSVKGRFTISRDNSKNTLYLQMNSLRAEDTAVYYCASLPVVPAAIGPLPAFDIWGQGTMVTVSS
VL: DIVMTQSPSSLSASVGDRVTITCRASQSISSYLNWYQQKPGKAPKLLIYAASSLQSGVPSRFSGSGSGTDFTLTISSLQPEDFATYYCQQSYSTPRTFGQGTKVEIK
B9: SEQ ID NOs: 573/577 (HCVR/LCVR) (antibody, V domains shown)
VH: QVQLQESGPGLVKPSETLSLTCTASGGSISSSSYYWGWIRQPPGKGLEWIGSIYYSGSTYYNPSLKSRVTISVDTSKNQFSLKLSSVTAADTAVYYCARHPSGLYQLLNWGQGTLVTVSS
VL: AIRMTQSPSSLSASVGDRVTITCQASQDISNYLNWYQQKPGKAPKLLIYDASNLETGVPSRFSGSGSGTDFTFTISSLQPEDIATYYCQQYDNLLSLTFGGGTKVEIK
B10: SEQ ID NOs: 533/537 (HCVR/LCVR) (antibody, V domains shown)
VH: EVQLVESGGGLVKPGGSLRLSCSASGFTFSNYNMDWVRQAPGKGLEWVSSISSSSSYIYLADSVKGRFTISRDNAKNSLYLQMNSLRAEDTAVYYCARVQKDIVVVPVALADYYYYGMDVWGQGTTVTVSS
VL: DIVMTQSPATLSVSPGERATLSCRASQSVSSNLAWYQQKPGQAPRLLIYGASTRATGIPARFSGSGSGTEFTLTISSLQPEDFAVYYCQQCYNWPPWTFGQGTRVEFK
B11: 002_P1H2 (antibody, V domains shown)
VH: EVQLVESGAEVKKPGSSVKVSCKASGGTLSSYAISWVRQAPGQGLEWMGGIIPIFGTANYAQKFQGRVTITTDESTSTAYMELSSLRSEDTAVYYCARGPRGCSSTSCYGSYFDYWGQGTLVTVSS
VL: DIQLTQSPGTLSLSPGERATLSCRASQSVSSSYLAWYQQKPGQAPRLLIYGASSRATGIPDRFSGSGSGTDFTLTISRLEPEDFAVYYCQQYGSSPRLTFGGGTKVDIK
B12: SEQ ID NOs: 629/633 (HCVR/LCVR) (antibody, V domains shown)
VH: QVQLVESRAEVKKPGSSVKVSCKASGGTFSSYAISWVRQAPGQGLEWMGRIIPILGITNYAQKFQGRVTITADKSTSTAYMELSSLRSEDTAVYYCARDAPDYYDSSGPTYFDYWGQGTLVTVSS
VL: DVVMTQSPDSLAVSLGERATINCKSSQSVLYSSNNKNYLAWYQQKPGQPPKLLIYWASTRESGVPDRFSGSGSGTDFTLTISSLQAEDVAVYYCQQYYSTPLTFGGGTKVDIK
B13: SEQ ID NOs: 389/393 (HCVR/LCVR) (antibody, V domains shown)
VH: EVQLVESGAEVKKPGSSVKVSCKASGGTFSSYAISWVRQAPGQGLEWMGGIIPIFGTANYAQKFQGRVTITTDESTSTAYMELSSLRSEDTAVYYCARGPRYCSSTSCYAGVYFDYWGQGTRVTVSS
VL: not shown
B14: SEQ ID NOs: 213/209 (HCVR/LCVR) (antibody, V domains shown)
VH: EVQLVESGPGLVKPSETLSLTCTVSGGSISSYYWSWIRQPPGKRLEWIGYIYYSGSTNYNPSLKSRVTISVDTSKNQFSLKLNSVTAADTAAYYCARGFDYWGQGTRVTVSS
VL: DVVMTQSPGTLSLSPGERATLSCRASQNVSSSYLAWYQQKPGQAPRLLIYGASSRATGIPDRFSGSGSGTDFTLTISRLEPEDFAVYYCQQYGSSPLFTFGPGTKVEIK
B15: COVA2-07 (antibody, V domains shown)
VH: EVQLVETGGGLIQPGGSLRLSCAASGLTVSSNYMNWVRQAPGKGLEWVSVIYSGGSTYYADSVKGRFTISRDNSKNTLYLQMNSLRAEDTAVYYCAREAYGMDVWGQGTMVTVSS
VL: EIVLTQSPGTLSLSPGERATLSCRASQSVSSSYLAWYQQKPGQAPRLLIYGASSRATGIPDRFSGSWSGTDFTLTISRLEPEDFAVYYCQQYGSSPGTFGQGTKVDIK
B16: 002_P1D6 (antibody, V domains shown)
VH: EVQLLESGAEVKKPGESLKISCKGSGYSFTSYWIGWVRQMPGKGLEWMGIIYPGDSDTRYSPSFQGQVTISADKSISTAYLQWSSLKASDTAMYYCARHMRPSIAARPGYQYYMDVWGKGTRVTVSS
VL: not shown
B17: COVA2-02 (antibody, V domains shown)
VH: VQLQQESGPGLVKPSETLSLTCTVSGGSISSSSYYWGWIRQPPGKGLEWIGSIYYSGSTYYNPSLKSRVTISVDTSKNQFSLKLSSVTAADTAVYYCARRSTSRWGYYYMDVWGKGTRVTVSS
VL: DIVMTQSPSSLSASVGDRVTITCRASQSISNYLNWYQQKPGKAPKLLLYAASDLQSGVPSRFSGSGSGTDFTLTISSLQPEDFATYYCQQSYSTHMSTFGQGTKVDIK
B18: SEQ ID NOs: 201/205 (HCVR/LCVR) (antibody, V domains shown)
VH: QLQLQESGPGLVKPSQTLSLTCTVSGGSISSGGYYWSWIRQLPGKGLEWIGYIYYSGSTYYNPSLKSRVTISVDTSKNQFSLNLSSVTAADTAVYYCARQQLDYYDSSGCFDYWGQGTLVTVSS
VL: DIVMTQSPSFLSASVGDRVTITCRASQGISSYLAWYQQKPGKAPKLLIYAASTLQSGVPSRFSGSGSGTEFTLTISSLQPEDFATYYCQQLHSYPLTFGGGTKVDIK
B19: SEQ ID NOs: 469/473 (HCVR/LCVR) (antibody, V domains shown)
VH: QVQLVQSGAEVKKPGESLRISCKGSGYSFTSHWISWVRQMPGKGLEWMGRIDPSDSYTNYSPSFQGHVTISADKSISTAYLQWSSLKASDTAMYYCARLKVITIFGVVRDDYGMDVWGQGTTVTVSS
VL: QSALTQPASVSGSPGQSITISCTGTSSDVGSYNLVSWYQQHPGKAPKLMIYDSSKRPSGVSNRFSGSKSGNTASLTISGLQAEDEADYYCCSYAGSVFGGGTKLTVL
B20: COVA1-16 (antibody, V domains shown)
VH: QVQLVQSGAEVKKPGASVKVSCKASGYTFTSYYMHWVRQAPGQGLEWMGIINSSGGSTSYAQKFQGRVTMTRDTSTSTVYMELSSLRSEDTAVYYCARPPRNYYDRSGYYQRAEYFQHWGQGTLVTVSS
VL: DIQLTQSPSSLSASVGDRVTITCQASQDISNYLNWYQQRPGKAPKLLIYDASNLETGVPSRFSGSGSGTDFTFTISSLQPEDIATYYCQQYDNPPLTFGGGTKLEIK
B21: SEQ ID NOs: 429/433 (HCVR/LCVR) (antibody, V domains shown)
VH: EVQLVESGGGVVQPGRSLRLSCAASGFTFSSYGMHWVRQAPGKGLEWVAVIWYDGSNKYYADSVKGRFTISRDNSKNTLYLQMDSLRAEDTAMYYCAKDKAPPCSSGWYYFDYWGQGTLVTVSS
VL: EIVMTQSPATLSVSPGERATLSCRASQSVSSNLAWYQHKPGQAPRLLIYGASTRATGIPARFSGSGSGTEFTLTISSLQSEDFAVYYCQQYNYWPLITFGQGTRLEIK
B22: SEQ ID NOs: 233/237 (HCVR/LCVR) (antibody, V domains shown)
VH: EVQLVESGGGLVQPGGSLRLSCAASGFTFSSYSMNWVRQAPGKGLEWVSYISSSSSTIYYADSVKGRFTISRDNAKNSLYLQMNSLRAEDTAVYYCAREANSDFWSGYLGYFDYWGQGTLVTVSS
VL: EIVMTQSPATLSLSPGERATLSCRASQSVSSYLAWYQQKPGQAPRLLIYDASNRATGIPARFSGSGSGTDFTLTISSLEPEDFAVYYCQQRSNWPQVTFGQGTRLEIK
B23: SEQ ID NOs: 453/457 (HCVR/LCVR) (antibody, V domains shown)
VH: EVQLVESGVEVKKPGASVKVSCKAFGYTFTGQDMHWVRQAPGQGLEWMGWINPSSAGTNYAQKFQGRVTMTRDTSISTAYMELSRLRSDDTSVYYCRKMLTIFGKVNQTMLLISGAKGQWSPSLQWGQGTMVTVSS
VL: DIVMTQTPLSLSVTPGQPASISCKSGQSLLHSDGKTYLYWYLQKPGQPPQLLIYEVSNRFSGVPDRFSGSGSGTDFTLKISRVEAEDVGVYYCMQSIQLPPTFGQGTKVEIK
B24: SEQ ID NOs: 565/569 (HCVR/LCVR) (antibody, V domains shown)
VH: EVQLLESGAEVKKPGASVKISCKASGYTFTGYYMHWVRQAPGQGLEWMGWINPNSGGTNYAQKFQGRVTMTRDTSISTAYMELSRLRSDDTAVYYCARGDGDYYDSSGYYRPTLYNWLDPWGQGTRVTVSS
VL: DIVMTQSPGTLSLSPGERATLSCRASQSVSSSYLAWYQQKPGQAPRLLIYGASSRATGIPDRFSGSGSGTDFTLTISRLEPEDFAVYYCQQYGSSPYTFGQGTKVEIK
B25: COVA2-39 (antibody, V domains shown)
VH: QVQLVETGGGLIQPGGSLRLSCAASGFTVSSNYMSWVRQAPGKGLEWVSVIYTGGTTYYADSVKGRFTISRDNSKNTLYLQMNSLRAEDTAVYYCARAHVDTAMVESGAFDIWGQGTRVTVSS
VL: QSALTQPASVSGSPGQSITISCTGTSSDVGSYNLVSWYQQHPGKAPKLMIYEVTKRPSGVSNRFSGSKSGNTASLTISGLQAEDEADYYCCSYAGSSTWVFGGGTKLTVL
B26: SEQ ID NOs: 49/53 (HCVR/LCVR) (antibody, V domains shown)
VH: QVQLVESGAEVKKPGSSVKVSCKASGGTLSSYAITWVRQAPGQGLEWVGGIIPIFGTANYAQKFQGRVTITADESTSTAYMELSSLRSEDTAVYYCARVGAYDSSGYSNDYWGQGTLVTVSS
VL: DIQLTQSPATLSLSPGERATLSCRASQSVSSYLAWYQQKPGQAPRLLIYDASNRATGIPARFSGSGSGTDFTLTISSLEPEDFAVYYCQQRSNWPPRVTFGGGTKVEIK

Target: stabilized prefusion SARS-CoV-2 S ectodomain (SARS-CoV-2 (Wuhan-Hu-1), UniProt P0DTC2 15-1138)
Test: SPR

Row | Binder | Kd
1 | B1 | ≤ 1 nM
2 | B2 | ≤ 1 nM
3 | B3 | ≤ 1 nM
4 | B4 | ≤ 1 nM
5 | B5 | ≤ 1 nM
6 | B6 | ≤ 1 nM
7 | B7 | ≤ 1 nM
8 | B8 | ≤ 1 nM
9 | B9 | ≤ 1 nM
10 | B10 | ≤ 1 nM
11 | B11 | ≤ 1 nM
12 | B12 | ≤ 1 nM
13 | B13 | ≤ 1 nM
14 | B14 | ≤ 1 nM
15 | B15 | ≤ 1 nM
16 | B16 | ≤ 1 nM
17 | B17 | ≤ 1 nM
18 | B18 | ≤ 1 nM
19 | B19 | ≤ 1 nM
20 | B20 | ≤ 1 nM
21 | B21 | ≤ 1 nM
22 | B22 | ≤ 1 nM
23 | B23 | ≤ 1 nM
24 | B24 | ≤ 1 nM
25 | B25 | ≤ 1 nM
26 | B26 | ≤ 1 nM
